For 46 sequences, Kd results are on record in the Immune Epitope Database (IEDB).

Some targets named below: HLA-A*11:01; HLA-A*33:01; HLA-A*68:01; HLA-A*31:01; HLA-A*03:01; HLA-A*30:02; HLA-A*01:01; HLA-A*26:01; HLA-A*23:01; HLA-A*29:02.
Assay in all cases: IEDB peptide-MHC binding, purified MHC/competitive/radioactivity; filed as Kd, often an IC50 or EC50 that approximates it; ≥ and ≤ were set here for values at or beyond the usual limits of such assays
Holding throughout (conditions): source organism: Plasmodium falciparum 3D7

Turning to MQSSFFMNR, the dissociation constant Kd was 1.1 nM with HLA-A*11:01, 75 nM with HLA-A*33:01, 3.8 nM with HLA-A*68:01 and 29 nM in the test with HLA-A*31:01.

Take KINSNFLLK: the dissociation constant Kd was 6.4 nM in the test with HLA-A*11:01; at least 10000 nM with HLA-A*33:01; 2740 nM with HLA-A*68:01; 17 nM with HLA-A*03:01; 68 nM with HLA-A*31:01.

In the case of ELFDKDTFFK, the Kd with HLA-A*33:01 amounted to 13 nM; in the test with HLA-A*68:01, 3.6 nM; in the test with HLA-A*03:01, 144 nM; in the test with HLA-A*31:01, 3680 nM.

For EQRLPLLPK, the Kd with HLA-A*11:01 worked out at 765 nM; with HLA-A*33:01, 987 nM; with HLA-A*68:01 it was 1910 nM; with HLA-A*03:01 it was 1090 nM; in the test with HLA-A*31:01, 423 nM.

On to KILIKIPVTK, for which the Kd was 60 nM with HLA-A*11:01, at least 10000 nM with HLA-A*33:01, at least 10000 nM in the test with HLA-A*68:01 and 1660 nM with HLA-A*31:01.

For TFLESSFDIK, the dissociation constant Kd is 2510 nM with HLA-A*11:01; at least 10000 nM with HLA-A*33:01; at least 10000 nM in the test with HLA-A*68:01; at least 10000 nM with HLA-A*03:01; at least 10000 nM with HLA-A*31:01.

On to AVSEIQNNK, for which the equilibrium dissociation constant (Kd) is 11 nM with HLA-A*11:01; at least 10000 nM in the test with HLA-A*33:01; 14 nM with HLA-A*68:01; 25 nM with HLA-A*03:01; 1430 nM in the test with HLA-A*31:01.

In the case of SSPLFNNFY, the dissociation constant (Kd) came to 41 nM with HLA-A*30:02, 117 nM with HLA-A*01:01 and 17 nM with HLA-A*26:01.

Regarding RLPLLPKTWK, the Kd in the test with HLA-A*33:01 is at least 10000 nM; with HLA-A*68:01, 2890 nM; with HLA-A*03:01, 11 nM; in the test with HLA-A*31:01, 340 nM.

As to IIALLIIPPK, the Kd with HLA-A*11:01 is 5.3 nM; with HLA-A*33:01, 8430 nM; with HLA-A*68:01, 82 nM; with HLA-A*03:01 it was 30 nM; with HLA-A*31:01, at least 10000 nM.

For RYQDPQNYEL, the Kd in the test with HLA-A*30:02 is 84 nM; with HLA-A*23:01, 124 nM; with HLA-A*29:02 it was at least 10000 nM.

For LIENELMNY, the dissociation constant (Kd) came to 161 nM with HLA-A*30:02, 412 nM in the test with HLA-A*01:01, 228 nM with HLA-A*26:01 and 3940 nM with HLA-A*29:02.

In the case of IALLIIPPK, the equilibrium dissociation constant (Kd) worked out at 108 nM with HLA-A*11:01; 1400 nM with HLA-A*33:01; 1960 nM with HLA-A*68:01; 1240 nM with HLA-A*03:01; 2930 nM with HLA-A*31:01.

In the case of SQVSNSDSYK, the Kd was 83 nM in the test with HLA-A*11:01; at least 10000 nM with HLA-A*33:01; 1380 nM with HLA-A*68:01; 1660 nM with HLA-A*03:01; at least 10000 nM with HLA-A*31:01.

Turning to HLNIPIGFK, the Kd in the test with HLA-A*11:01 is 1.3 nM; with HLA-A*68:01, 2.8 nM; in the test with HLA-A*03:01, 2.3 nM; with HLA-A*31:01, 183 nM.

Regarding TTRYKYLNK, the Kd with HLA-A*11:01 was 848 nM; with HLA-A*33:01 it was 652 nM; with HLA-A*68:01 it was 2560 nM; with HLA-A*03:01, 117 nM; with HLA-A*31:01, 416 nM.

For the sequence ILCIEGEQK, the Kd with HLA-A*11:01 was 641 nM; with HLA-A*33:01, at least 10000 nM; with HLA-A*68:01 it was 526 nM; with HLA-A*03:01, 1400 nM; in the test with HLA-A*31:01, 7530 nM.

With ALKISQLQK, the Kd with HLA-A*11:01 is 96 nM; with HLA-A*33:01, at least 10000 nM; in the test with HLA-A*68:01 it was at least 10000 nM; with HLA-A*03:01, 15 nM; in the test with HLA-A*31:01, 3200 nM.

As for SSFDIKSEVK, the Kd is 19 nM with HLA-A*11:01; at least 10000 nM with HLA-A*33:01; 31 nM in the test with HLA-A*68:01; 1900 nM with HLA-A*03:01; at least 10000 nM with HLA-A*31:01.

On to LTNHLINTPK, for which the dissociation constant Kd was 5.9 nM with HLA-A*11:01; 373 nM with HLA-A*33:01; 10 nM with HLA-A*68:01; 11 nM with HLA-A*03:01; 62 nM with HLA-A*31:01.

For FSYDLRLNK, the Kd stood at 4.9 nM with HLA-A*11:01; 1260 nM in the test with HLA-A*33:01; 15 nM in the test with HLA-A*68:01; 29 nM with HLA-A*03:01; 461 nM with HLA-A*31:01.

On to PVLTSLFNK, for which the Kd with HLA-A*11:01 was 25 nM; with HLA-A*33:01, at least 10000 nM; in the test with HLA-A*68:01 it was at least 10000 nM; in the test with HLA-A*03:01, 1950 nM; with HLA-A*31:01, 5110 nM.

Take SSPLFNNFYK: the dissociation constant Kd was determined as 0.74 nM with HLA-A*11:01; 1730 nM with HLA-A*33:01; 6.3 nM in the test with HLA-A*68:01; 100 nM with HLA-A*03:01; 1610 nM in the test with HLA-A*31:01.

As to GTMYILLKK, the Kd with HLA-A*11:01 stood at 1.2 nM; in the test with HLA-A*33:01 it was 8450 nM; with HLA-A*68:01 it was 3.1 nM; with HLA-A*03:01 it was 2.2 nM; with HLA-A*31:01 it was 29 nM.

Regarding SQDLACIFDA, the Kd with HLA-A*11:01, in the test with HLA-A*33:01, in the test with HLA-A*68:01, in the test with HLA-A*03:01 and in the test with HLA-A*31:01 was at least 10000 nM in each case.

Turning to SSFFMNRFY, the equilibrium dissociation constant (Kd) with HLA-A*30:02 was 7.5 nM; with HLA-A*01:01 it was 239 nM; with HLA-A*26:01, 166 nM; in the test with HLA-A*29:02, 36 nM.

As to IFISFYLINK, the dissociation constant (Kd) came to 1060 nM in the test with HLA-A*11:01; 394 nM with HLA-A*33:01; 363 nM with HLA-A*68:01; 1990 nM in the test with HLA-A*03:01; 462 nM with HLA-A*31:01.

On to YLINKHWQR, for which the Kd was found to be 676 nM in the test with HLA-A*11:01; 7.7 nM in the test with HLA-A*33:01; 3.7 nM with HLA-A*68:01; 1030 nM with HLA-A*03:01; 4.4 nM in the test with HLA-A*31:01.

Regarding NVDQQNDMY, the Kd with HLA-A*30:02 was at least 10000 nM; in the test with HLA-A*01:01, 47 nM; with HLA-A*26:01, at least 10000 nM; with HLA-A*29:02 it was at least 10000 nM.

For VVCSMEYKK, the Kd with HLA-A*11:01 was 54 nM; with HLA-A*33:01 it was at least 10000 nM; in the test with HLA-A*68:01, 167 nM; in the test with HLA-A*03:01, 443 nM; with HLA-A*31:01, 891 nM.

Regarding QQNQESKIMK, the dissociation constant (Kd) with HLA-A*11:01 is 77 nM; with HLA-A*33:01, at least 10000 nM; with HLA-A*68:01, at least 10000 nM; in the test with HLA-A*03:01 it was 3470 nM; with HLA-A*31:01, at least 10000 nM.

As to FISFYLINK, the Kd in the test with HLA-A*11:01 amounted to 9 nM; in the test with HLA-A*33:01, 1460 nM; with HLA-A*68:01, 18 nM; with HLA-A*03:01 it was 19 nM; with HLA-A*31:01, 2190 nM.

With ALERLLSLKK, the Kd with HLA-A*11:01 was 822 nM; in the test with HLA-A*33:01, at least 10000 nM; with HLA-A*68:01, at least 10000 nM; with HLA-A*03:01, 147 nM; in the test with HLA-A*31:01 it was at least 10000 nM.

Regarding KSMLKELIK, the Kd with HLA-A*11:01 is 151 nM; with HLA-A*33:01 it was at least 10000 nM; with HLA-A*68:01, at least 10000 nM; with HLA-A*03:01 it was 189 nM; with HLA-A*31:01, 450 nM.

On to IFLRFIPDK, for which the dissociation constant (Kd) was 1280 nM with HLA-A*11:01; 1310 nM with HLA-A*33:01; at least 10000 nM in the test with HLA-A*68:01; 2440 nM in the test with HLA-A*03:01; 1640 nM with HLA-A*31:01.

Turning to ALERLLSLK, the Kd with HLA-A*11:01 is 369 nM; with HLA-A*33:01 it was at least 10000 nM; with HLA-A*68:01 it was at least 10000 nM; in the test with HLA-A*03:01, 233 nM; in the test with HLA-A*31:01, 3430 nM.

Consider LQMMNVNLQK, for which the Kd with HLA-A*11:01 worked out at 7.2 nM; in the test with HLA-A*33:01, 1110 nM; with HLA-A*68:01, 320 nM; in the test with HLA-A*03:01, 25 nM; with HLA-A*31:01, 435 nM.

For YLFNQHIKK, the equilibrium dissociation constant (Kd) turned out to be 7.8 nM with HLA-A*11:01; 7970 nM in the test with HLA-A*33:01; 14 nM with HLA-A*68:01; 14 nM in the test with HLA-A*03:01; 4920 nM in the test with HLA-A*31:01.

In the case of YQNFQNADK, the Kd with HLA-A*11:01 is 177 nM; in the test with HLA-A*33:01, at least 10000 nM; with HLA-A*68:01, at least 10000 nM; in the test with HLA-A*03:01 it was 2710 nM; in the test with HLA-A*31:01, at least 10000 nM.

For the sequence YYNNFNNNY, the values for the Kd with HLA-A*30:02 and with HLA-A*23:01 were 58 nM and 126 nM, respectively.

Turning to SISGKYDIK, the dissociation constant Kd is 50 nM in the test with HLA-A*11:01; at least 10000 nM with HLA-A*33:01; 1740 nM in the test with HLA-A*68:01; 2090 nM with HLA-A*03:01; at least 10000 nM with HLA-A*31:01.

Regarding LFDKDTFFK, the equilibrium dissociation constant (Kd) was found to be 167 nM with HLA-A*11:01; 1190 nM with HLA-A*33:01; 101 nM in the test with HLA-A*68:01; 931 nM with HLA-A*03:01; 5710 nM in the test with HLA-A*31:01.

As to PVVCSMEYK, the Kd in the test with HLA-A*11:01 was 80 nM; in the test with HLA-A*33:01 it was at least 10000 nM; with HLA-A*68:01, 414 nM; with HLA-A*03:01, 1940 nM; in the test with HLA-A*31:01, at least 10000 nM.

As for IYYFDGNSW, the Kd is 3020 nM with HLA-A*30:02, 6.1 nM with HLA-A*23:01 and 3100 nM with HLA-A*29:02.

With AFLESQSMNK, the Kd with HLA-A*11:01 is 1090 nM; with HLA-A*33:01, at least 10000 nM; in the test with HLA-A*68:01, at least 10000 nM; in the test with HLA-A*03:01 it was 3060 nM; with HLA-A*31:01, 9890 nM.

Take NIFLRFIPDK: the Kd in the test with HLA-A*11:01 was 2120 nM; in the test with HLA-A*33:01, 1090 nM; with HLA-A*68:01, 1530 nM; with HLA-A*03:01, at least 10000 nM; in the test with HLA-A*31:01, at least 10000 nM.
